Target: basophil-bound IgE of a grass pollen allergic patient
Experiment: cell-based or functional assay

reduction of histamine release compared to complete rPhl p 6: ~1000 fold
Binder: GKATTEEQKLIEDINASFRAAMATTANVPPADK [rPhl p 6 aa 1-33]

Source: patent US20030077290A1 (PHADIA, published 2003)
